Experimental data taken from IntAct's records for PubMed 12565857.

B1: Chromobox protein homolog 5 (Mus musculus), Q61686 (parent)
chain: MGKKTKRTADSSSSEDEEEYVVEKVLDRRMVKGQVEYLLKWKGFSEEHNTWEPEKNLDCPELISEFMKKYKKMKEGENNKPREKSEGNKRKSSFSNSADDIKSKKKREQSNDIARGFERGLEPEKIIGATDSCGDLMFLMKWKDTDEADLVLAKEANVKCPQIVIAFYEERLTWHAYPEDAENKEKESAKS
partner: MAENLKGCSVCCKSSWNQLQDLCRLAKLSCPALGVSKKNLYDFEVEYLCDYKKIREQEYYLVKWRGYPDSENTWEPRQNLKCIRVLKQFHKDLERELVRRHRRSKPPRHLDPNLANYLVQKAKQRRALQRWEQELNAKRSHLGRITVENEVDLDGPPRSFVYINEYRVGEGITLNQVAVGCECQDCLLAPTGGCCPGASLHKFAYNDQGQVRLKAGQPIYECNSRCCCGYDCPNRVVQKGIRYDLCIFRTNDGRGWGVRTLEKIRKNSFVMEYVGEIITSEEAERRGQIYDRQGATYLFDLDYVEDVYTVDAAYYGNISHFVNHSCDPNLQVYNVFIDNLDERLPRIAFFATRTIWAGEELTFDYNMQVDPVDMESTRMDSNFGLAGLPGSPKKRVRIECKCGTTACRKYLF

Variants of: B1
Details: with suv91_mouse Suv39h1, O54864

effect of a mutation on the interaction | Variant
disrupting interaction | I165E;Y168E
